Target: minimal functional rat TRPV1 construct, tetramer reconstituted in lipid nanodisc (rat) (UniProt O35433)
Assay: cryo-EM structure

Sequence of UniProt O35433 (O35433 whole entry): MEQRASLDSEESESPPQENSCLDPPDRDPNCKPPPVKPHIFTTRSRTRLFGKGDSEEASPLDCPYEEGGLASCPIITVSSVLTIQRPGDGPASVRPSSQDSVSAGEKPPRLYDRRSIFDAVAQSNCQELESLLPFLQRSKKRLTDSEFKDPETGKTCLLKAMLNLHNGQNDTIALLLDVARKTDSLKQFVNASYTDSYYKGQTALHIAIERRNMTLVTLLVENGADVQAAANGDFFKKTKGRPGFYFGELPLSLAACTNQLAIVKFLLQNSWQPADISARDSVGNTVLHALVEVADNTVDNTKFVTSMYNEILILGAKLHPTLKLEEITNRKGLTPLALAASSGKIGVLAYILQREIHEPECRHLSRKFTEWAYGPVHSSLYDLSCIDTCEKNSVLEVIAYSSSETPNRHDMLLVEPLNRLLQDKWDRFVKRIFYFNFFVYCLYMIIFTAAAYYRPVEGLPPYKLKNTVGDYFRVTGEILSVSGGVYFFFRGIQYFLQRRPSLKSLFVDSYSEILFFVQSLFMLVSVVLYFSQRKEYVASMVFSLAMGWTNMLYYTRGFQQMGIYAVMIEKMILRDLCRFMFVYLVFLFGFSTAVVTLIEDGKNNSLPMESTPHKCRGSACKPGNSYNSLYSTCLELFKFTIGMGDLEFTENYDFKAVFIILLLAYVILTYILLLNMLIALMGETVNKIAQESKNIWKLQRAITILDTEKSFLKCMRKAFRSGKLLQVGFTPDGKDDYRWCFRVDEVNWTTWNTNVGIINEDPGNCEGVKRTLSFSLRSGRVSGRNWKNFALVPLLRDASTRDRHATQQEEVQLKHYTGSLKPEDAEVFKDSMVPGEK

B1: double-knot toxin (DkTx) (peptide)
chain: DCAKEGEVCSWGKKCCDLDNFYCPMEFIPHCKKYKPYVPVTTNCAKEGEVCGWGSKCCHGLDCPLAFIPYCEKYRGRND
Q: Which stoichiometry N (DkTx per TRPV1 tetramer) does the source give for B1 here?
A: 2

Source: article PMC4911334
